One may read the stoichiometry N as the number of molecules, sites or subunits per partner or assembly.

This note sets out measurements from doi:10.1101/2024.11.27.625426 (bioRxiv, 2024).

The assay addresses N1-CA09-sNAp, stabilized neuraminidase protein of A/California/04/2009 (H1N1) (influenza A virus A/California/04/2009 (H1N1)) (UniProt C3W5S3). In words: cryo-EM structure.

“N1-CA09-sNAp, stabilized neuraminidase protein of A/California/04/2009 (H1N1) (from UniProt C3W5S3 1-469) (enzyme)”: the stoichiometry N turned out to be 4 protomers.
